Where “and” joins values, the source holds several entries; their conditions need not be identical. Equal values may be shown once. Where no end group is shown, it is not given here.
Columns and labels:
anti-CD28 Fab [1] = assay: competition ELISA, peptide titrated 0-100 uM against 1 nM anti-CD28 Fab, plate-bound CD28 as competitor
anti-CD28 Fab [2] = assay: as above; remark: listed apart in the source
anti-CD28 Fab [3] = assay: as above; remark: listed apart in the source
[4] = target: T1, anti-CD28 scFv (disulfide); assay: competition ELISA, peptide titrated 0-100 uM against 0.3 nM anti-CD28 scFv (disulfide), plate-bound CD28 as competitor
T1 construct: also called Anti-CD28 scFv (VH - linker 1 - VL) Disulfide mutation: G44C, G235C

Ab-15 [5] = assay: binding ELISA: biotinylated peptide on neutravidin plate, Ab-15 titrated
Ab-15 [6] = assay: BLI (Octet): sensor loaded with 200 nM biotinylated peptide, 100 nM Ab-15
Ab-15 [7] = assay: competition ELISA: peptide titrated against 1 nM Ab-15; competitor plate-bound CD28
[8] = target: T2, Anti-CD28 Fab (SEQ ID NOs: 696, 697); assay: phage binding ELISA on captured anti-CD28 Fab; wells pre-incubated with CD28 antigen as competitor
T2 construct: In the phage ELISA the Fab was biotinylated and captured on neutravidin coated plates

[9] = target: T2, Anti-CD28 Fab (SEQ ID NOs: 696, 697); assay: phage binding ELISA; biotinylated anti-CD28 Fab captured on neutravidin plate, clonal phage supernatant, anti-M13 HRP detection
anti-CD28 Fab [10] = assay: competition ELISA: peptide titrated (0-100 µM) with 1 nM anti-CD28 Fab, binding to plate-bound CD28
[11] = target: T3, anti-CD28 scFv (disulfide); assay: competition ELISA: peptide titrated (0-100 µM) with 0.3 nM anti-CD28 scFv (disulfide), binding to plate-bound CD28
T3 construct: also called Anti-CD28 scFv (VH - linker 1 - VL) Disulfide mutation: G44C, G235C

[12] = target: T4, Anti-CD28 Fab (SEQ ID NOs: 696, 697); assay: phage binding ELISA on captured Fab; competitor: CD28 antigen pre-incubated in the wells
T4 construct: Biotinylated and captured on neutravidin coated plates in the phage ELISA

[13] = target: T4, Anti-CD28 Fab (SEQ ID NOs: 696, 697); assay: phage binding ELISA; biotinylated Fab on neutravidin plate, clonal phage supernatant, anti-M13 HRP; background signal 0.06
anti-CD28 scFv = target: T5, anti-CD28 scFv; assay: BLI (Octet RED96): biotinylated peptide on streptavidin sensor, anti-CD28 scFv at 100-12.5 nM, 1:1 model
T5 construct: also called Anti-CD28 scFv (VH - linker 1 - VL)

[14] = target: T6, PSMA Fab (SEQ ID NOs: 19, 20); assay: competition ELISA, peptide titrated against 0.3 nM PSMA Fab on captured biotinylated PSMA
T6 construct: also called 006 PSMA Fab; anti-PSMA Fab

anti-CD28 Fab [15] = assay: competition ELISA: peptide titrated (0-100 µM) with 1 nM anti-CD28 Fab, binding to plate-bound CD28; remark: listed apart in the source
anti-CD28 Fab [16] = assay: BLI (Octet): biotinylated peptide on streptavidin sensor, anti-CD28 Fab titrated in solution, 1:1 model

YCAGHAWQYINKCL
IC50 (anti-CD28 Fab [1]): 13.8 µM | IC50 (anti-CD28 Fab [2]): 9.76 µM | IC50 (anti-CD28 Fab [3]): 12.6 µM | IC50 [4]: > 100 µM

LDWCPRHLWALCFN (cysteine pairing not given here; also: biotinylated, site not given here, CD28 peptide mask) [Peptide-70]
EC50 (Ab-15 [5]): 0.0082 µM | Octet signal (200 nM peptide) (Ab-15 [6]): 0.697 | IC50 (Ab-15 [7]): 0.47 µM

YCDGHWPGYLWKCL [Phage-1330 (Peptide-87 library sequence, SEQ ID NO: 1646)]
Phage binding ELISA, Anti-CD28 Fab signal in the presence of CD28 [8]: 0.06 | Phage binding ELISA, Anti-CD28 Fab signal [9]: 0.42

SCAAGASYAWPYCL [Peptide-92]
IC50 (anti-CD28 Fab [10]): 7.89 µM

SCAAGASYAWPACL [Peptide-105]
IC50 (anti-CD28 Fab [10]): 13 µM | IC50 [11]: 56.9 µM

SCAAGAAYAWPYCL [Peptide-101]
IC50 (anti-CD28 Fab [10]): 7.42 µM | IC50 [11]: 36.2 µM

SCAAGASYAWPYCA [Peptide-106]
IC50 (anti-CD28 Fab [10]): 76.4 µM

ACAAGASYAWPYCL [Peptide-99]
IC50 (anti-CD28 Fab [10]): 21 µM | IC50 [11]: 67 µM

B1: Phage-1014 (Peptide-87 library peptide, SEQ ID NO: 1330) (peptide)
peptide: YCDGHSQEYMEKCL
notes: tested as crude clonal phage supernatant
Anti-CD28 Fab signal in the presence of CD28 (phage binding ELISA) [12]: 0.06 | Anti-CD28 Fab signal (phage binding ELISA) [13]: 1.5

WCWDYKLWVPMTCP [Peptide-85]
IC50 (anti-CD28 Fab [1]): > 100 µM | IC50 [4]: > 100 µM

B2: Phage-1013 (Peptide-87 library peptide, SEQ ID NO: 1329) (peptide)
peptide: YCEGHSLMYMAKCL
notes: as for B1
Anti-CD28 Fab signal in the presence of CD28 (phage binding ELISA) [12]: 0.06 | Anti-CD28 Fab signal (phage binding ELISA) [13]: 1.5

YCDGHSQIYMSKCL [Phage-1329 (Peptide-87 library sequence, SEQ ID NO: 1645)]
Phage binding ELISA, Anti-CD28 Fab signal in the presence of CD28 [8]: 0.06 | Phage binding ELISA, Anti-CD28 Fab signal [9]: 0.42

IDWCPLHLWHECYH (cysteine pairing not given here; also: biotinylated, site not given here, CD28 peptide mask) [Peptide-72]
EC50 (Ab-15 [5]): 0.0133 µM | Octet signal (200 nM peptide) (Ab-15 [6]): 0.838 | IC50 (Ab-15 [7]): 1.52 µM

B3: Phage-1020 (Peptide-87 library peptide, SEQ ID NO: 1336) (peptide)
peptide: YCEGHIMQYMAQCL
notes: as for B1
Anti-CD28 Fab signal in the presence of CD28 (phage binding ELISA) [12]: 0.06 | Anti-CD28 Fab signal (phage binding ELISA) [13]: 1.49

ACDTYFAGMINECF [Peptide-79]
IC50 (anti-CD28 Fab [1]): > 100 µM | IC50 [4]: > 100 µM

B4: Phage-1022 (Peptide-87 library peptide, SEQ ID NO: 1338) (peptide)
peptide: YCDGHSEQYIAKCL
notes: as for B1
Anti-CD28 Fab signal in the presence of CD28 (phage binding ELISA) [12]: 0.08 | Anti-CD28 Fab signal (phage binding ELISA) [13]: 1.49

B5: Phage-1012 (Peptide-87 library peptide, SEQ ID NO: 1328) (peptide)
peptide: YCEGHMPQYMEKCL
notes: as for B1
Anti-CD28 Fab signal in the presence of CD28 (phage binding ELISA) [12]: 0.06 | Anti-CD28 Fab signal (phage binding ELISA) [13]: 1.51

YCAGHASEYLQKCL [Phage-1328 (Peptide-87 library sequence, SEQ ID NO: 1644)]
Phage binding ELISA, Anti-CD28 Fab signal in the presence of CD28 [8]: 0.06 | Phage binding ELISA, Anti-CD28 Fab signal [9]: 0.43

B6: Phage-1021 (Peptide-87 library peptide, SEQ ID NO: 1337) (peptide)
peptide: YCDGHLPIYQAKCL
notes: as for B1
Anti-CD28 Fab signal in the presence of CD28 (phage binding ELISA) [12]: 0.1 | Anti-CD28 Fab signal (phage binding ELISA) [13]: 1.49

MDWCPRERWVDCFF (cysteine pairing not given here; also: biotinylated, site not given here) [Peptide-9]
Kd (anti-CD28 scFv): 0.377 µM | koff (anti-CD28 scFv): 0.0123 s⁻¹ | kon (anti-CD28 scFv): 32500 M⁻¹ s⁻¹

YCAGHSPINIGKCL [Peptide-84]
IC50 (anti-CD28 Fab [1]): 26.8 µM | IC50 [4]: > 100 µM

VPWCQIISGLECLT (cysteine pairing not given here; also: biotinylated, site not given here, CD28 peptide mask) [Peptide-73]
EC50 (Ab-15 [5]): 0.0549 µM | Octet signal (200 nM peptide) (Ab-15 [6]): 0.166 | IC50 (Ab-15 [7]): > 100 µM

MDWCPRDLWVHCFA [Peptide-41]
IC50 (anti-CD28 Fab [1]): > 100 µM | IC50 [4]: 61.5 µM

YECHQGLFHRWCVN (cysteine pairing not given here; also: biotinylated (site not given here), PSMA peptide mask (P2)) [Peptide-185]
IC50 [14]: 23 µM

IYWCPIDRWNDCYN (cysteine pairing not given here; also: biotinylated, site not given here, CD28 peptide mask) [Peptide-74]
EC50 (Ab-15 [5]): 0.0076 µM | Octet signal (200 nM peptide) (Ab-15 [6]): 0.705 | IC50 (Ab-15 [7]): 0.41 µM

YCTGWQVAYMQNCF [Phage-1331 (Peptide-87 library sequence, SEQ ID NO: 1647)]
Phage binding ELISA, Anti-CD28 Fab signal in the presence of CD28 [8]: 0.06 | Phage binding ELISA, Anti-CD28 Fab signal [9]: 0.42

YCDGHLPEYMEKCL [Phage-1327 (Peptide-87 library sequence, SEQ ID NO: 1643)]
Phage binding ELISA, Anti-CD28 Fab signal in the presence of CD28 [8]: 0.07 | Phage binding ELISA, Anti-CD28 Fab signal [9]: 0.43

YCDGHTWMYKQKCL [Phage-1333 (Peptide-87 library sequence, SEQ ID NO: 1649)]
Phage binding ELISA, Anti-CD28 Fab signal in the presence of CD28 [8]: 0.08 | Phage binding ELISA, Anti-CD28 Fab signal [9]: 0.4

YCAGHLDEYMEKCL [Phage-1332 (Peptide-87 library sequence, SEQ ID NO: 1648)]
Phage binding ELISA, Anti-CD28 Fab signal in the presence of CD28 [8]: 0.07 | Phage binding ELISA, Anti-CD28 Fab signal [9]: 0.4

B7: Peptide-87 (peptide)
peptide: YCAGHAWQYINKCL
modifications: not fully specified; cysteine pairing not given here; also: biotinylated, site not given here
IC50 (anti-CD28 Fab [15]): 12.6 µM | Kd (anti-CD28 Fab [16]): 2.02 µM | koff (anti-CD28 Fab [16]): 0.0202 s⁻¹ | kon (anti-CD28 Fab [16]): 10000 M⁻¹ s⁻¹ | t1/2 (anti-CD28 Fab [16]): 36 s | IC50 [11]: 11 µM and 14.6 µM

B8: Peptide-110 (peptide)
peptide: YCAGHAAQYINKCL
notes: Alanine scan variant of Peptide-87 (W7A)
IC50 (anti-CD28 Fab [15]): 3.16 µM | IC50 [11]: 1.91 µM

B9: Peptide-113 (peptide)
peptide: YCAGHAWQYANKCL
notes: Alanine scan variant of Peptide-87 (I10A)
IC50 (anti-CD28 Fab [15]): 102 µM

B10: Peptide-114 (peptide)
peptide: YCAGHAWQYIAKCL
notes: Alanine scan variant of Peptide-87 (N11A)
IC50 (anti-CD28 Fab [15]): 5.49 µM | IC50 [11]: 7.09 µM

B11: Peptide-116 (peptide)
peptide: YCAGHAWQYINKCA
notes: Alanine scan variant of Peptide-87 (L14A)
IC50 (anti-CD28 Fab [15]): 98.6 µM | IC50 [11]: 76.4 µM

B12: Peptide-111 (peptide)
peptide: YCAGHAWAYINKCL
notes: Alanine scan variant of Peptide-87 (Q8A)
IC50 (anti-CD28 Fab [15]): 12.3 µM | IC50 [11]: 10.5 µM

B13: Phage-1010 (Peptide-87 library peptide, SEQ ID NO: 1326) (peptide)
peptide: YCDGHSELYMAKCL
notes: as for B1
Anti-CD28 Fab signal in the presence of CD28 (phage binding ELISA) [12]: 0.06 | Anti-CD28 Fab signal (phage binding ELISA) [13]: 1.51

IECAYMTDQRFWCW (cysteine pairing not given here; also: biotinylated (site not given here), PSMA peptide mask (P2)) [Peptide-188]
IC50 [14]: 7.22 µM

GYCHYWGDMVMWCG (cysteine pairing not given here; also: biotinylated, site not given here) [Peptide-12]
Kd (anti-CD28 scFv): 0.017 µM | koff (anti-CD28 scFv): 0.00167 s⁻¹ | kon (anti-CD28 scFv): 98700 M⁻¹ s⁻¹

Source: patent publication US20260242478A1 (published 2026)
